Positions count from the first letter of the chain named. “And” between values parts separate entries of the source, which are not always exact repeats. Identical values can stand only once. Like-named read-outs stand apart in the source and are kept apart here. Blank lines part the entries; values can stand above or below the binder they belong to.
Columns and labels:
Experiment in all cases: cell-based or functional assay
[1] = target: T1, HA-1 “H” peptide (…) presented by HLA-A*02:01 on antigen presenting cells (human)
[2] = target: T1, HA-1 “H” peptide (…) presented by …; remark: listed apart in the source
[3] = target: T1, HA-1 “H” peptide (…) presented by …; remark: listed apart in the source

B1: TCR AJ (TCR, V domains shown)
V domain 1: EDQVTQSPEALRLQEGESSSLNCSYTVSGLRGLFWYRQDPGKGPEFLFTLYSAGEEKEKERLKATLTKKESFLHITAPKPEDSATYLCAVHSNAGGTSYGKLTFGQGTILTVHP
V domain 2: DAGVTQSPTHLIKTRGQHVTLRCSPISGHKSVSWYQQVLGQGPQFIFQYYEKEERGRGNFPDRFSARQFPNYSSELNVNALLLGDSALYLCASSADRGSPLHFGNGTRLTVTE
- EC50 values for CD69 Expression [1]: 5 ng/mL

B3: TCR F (TCR, V domains shown)
V domain 1: GENVEQHPSTLSVQEGDSAVIKCTYSDSASNYFPWYKQELGKRPQLIIDIRSNVGEKKDQRIAVTLNKTAKHFSLHITETQPEDSAVYFCAAHLTGGGNKLTFGTGTQLKVEL
V domain 2: DTGVSQDPRHKITKRGQNVTFRCDPISEHNRLYWYRQTLGQGPEFLTYFQNEAQLEKSRLLSDRFSAERPKGSFSTLEIQRTEQGDSAMYLCASSSRAGGETQYFGPGTRLLVLE
- EC50 for CD69 Expression [2]: < 10 ng/mL and < 10 nM

B4: TCR D (TCR, V domains shown)
V domain 1: AQSVAQPEDQVNVAEGNPLTVKCTYSVSGNPYLFWYVQYPNRGLQFLLKYITGDNLVKGSYGFEAEFNKSQTSFHLKKPSALVSDSALYFCAVRAPTSGTYKYIFGTGTRLKVLA
V domain 2: DTGVSQDPRHKITKRGQNVTFRCDPISEHNRLYWYRQTLGQGPEFLTYFQNEAQLEKSRLLSDRFSAERPKGSFSTLEIQRTEQGDSAMYLCASSLVSGNEQFFGPGTRLTVLE
- EC50 for CD69 Expression [2]: < 10 nM and < 10 ng/mL

B5: TCR AH (TCR, V domains shown)
V domain 1: B4 V domain 1 with A95V
V domain 2: B4 V domain 2
- EC50 values for CD69 Expression [3]: 3.4 ng/mL

B6: TCR AF (TCR, V domains shown)
V domain 1: B4 V domain 1 with A95S
V domain 2: B4 V domain 2
- EC50 values for CD69 Expression [3]: 2.49 ng/mL

More lines, now with the values ahead:

- EC50 for CD69 Expression [2]: < 10 ng/mL and < 10 nM
B2: TCR A (TCR, V domains shown)
V domain 1: AQSVAQPEDQVNVAEGNPLTVKCTYSVSGNPYLFWYVQYPNRGLQFLLKYITGDNLVKGSYGFEAEFNKSQTSFHLKKPSALVSDSALYFCAVRGGSYKYIFGTGTRLKVLA
V domain 2: B3 V domain 2 with S95T, S96P, R97G, A98T, G99V, G100Y, E101N, T102E, Y104F, L112T

- EC50 values for CD69 Expression [1]: 4.9 ng/mL
B7: TCR AD (TCR, V domains shown)
V domain 1: SQQGEEDPQALSIQEGENATMNCSYKTSINNLQWYRQNSGRGLVHLILIRSNEREKHSGRLRVTLDTSKKSSSLLITASRAADTASYFCATVPTDYMYSGGGADGLTFGKGTHLIIQP
V domain 2: B4 V domain 2 with D7N, S98R, G99L, N100D, E101G, Q102Y, F103T, P106S, L113V

- EC50 for CD69 Expression [2]: < 10 ng/mL and < 10 nM
B8: TCR E (TCR, V domains shown)
V domain 1: B4 V domain 1 with A95G
V domain 2: B4 V domain 2

- EC50 for CD69 Expression [2]: < 10 ng/mL and < 10 nM
B9: TCR C (TCR, V domains shown)
V domain 1: KQEVTQIPAALSVPEGENLVLNCSFTDSAIYNLQWFRQDPGKGLTSLLLIQSSQREQTSGRLNASLDKSSGRSTLYIAASQPGDSATYLCAVRPRTSGTYKYIFGTGTRLKVLA
V domain 2: B4 V domain 2 with S95T, L96E, V97L, E101T, Q102I, F103Y, P106E, T108S, R109W, L113V

- EC50 values for CD69 Expression [3]: 2.27 ng/mL
B10: TCR AG (TCR, V domains shown)
V domain 1: B4 V domain 1 with A95T
V domain 2: B4 V domain 2

- EC50 values for CD69 Expression [3]: 2.77 ng/mL
B11: TCR AE (TCR, V domains shown)
V domain 1: B4 V domain 1 with A95C
V domain 2: B4 V domain 2

- EC50 values for CD69 Expression [3]: 9.2 ng/mL
B12: TCR AI (TCR, V domains shown)
V domain 1: B4 V domain 1 with A95E
V domain 2: B4 V domain 2 with S98N

Reference: patent US20240270813A1 (UNIVERSITY OF PITTSBURGH OF THE COMMONWEALTH SYSTEM OF …, published 2024)
